Assay results published in patent US20200171068A1, “COMPOSITIONS COMPRISING APTAMERS AND NUCLEIC ACID PAYLOADS AND METHODS OF USING THE SAME” (Children's National Medical Center, priority 2017, published 2020).

System: hematopoiesis
Type: in vivo, mouse
Protocol: The mice received intravenous injection of 670 pmol/20 g miR-26a or control chimera daily for 3 days. 150 mg/kg 5-FU was injected on day 2 of the chimera treatment. FIG. 2A is a graph showing the numbers of white blood cells (WBC) 10 days after 5-FU treatment. Data (mean+s.d.) were pooled from two experiments, involving a total of 6 mice per group. FIG. 2B is a graph showing the number of bone marrow (BM) cells 10 days after 5-FU treatment. Data (mean+s.d.) were pooled from two experiments, involving a total of 6 mice per group. FIG. 2C is (left) a representative picture of LSK population 5 days after 5-FU treatment with or without miR-26a chimera treatment; and (right) a graph showing the percentages of LSK population. Data (mean+s.d.) were pooled from two experiments, involving a total of 6 mice per group. FIG. 2D is a series of graphs showing apoptosis. Left, representative picture of Annexin V^+ in LSK population 5 days after 5-FU treatment. Right, the percentages of Annexin V^+ in the LSK population. Data (mean+s.d.) were pooled from two experiments, involving a total of 6 mice per group. *P<0.05, **P<0.01. FIG. 2E is a picture showing a putative miR-26a target site in the 3′UTR of mouse Bak1 (SEQ ID NO:19). Base pairs CU-GA -UACUUGAA (SEQ ID NO:20) of the Bak Sequence and its complementary basepairs are the sites with highly probability preferential conservation between mammals. The miR-26a sequence depicted is SEQ ID NO:21. FIG. 2F is a graph showing relative luciferase activity of reporter constructs containing the wild-type or mutant (mut) 3′-UTR of mouse Bak1 in HEK293 cells co-transfected with either miR-26a precursor (OE), miR-26a TuD inhibitor (TuD), or negative control (ctrl). Data were pooled from two experiments. FIG. 2G is a graph showing relative expression level of Bak1 mRNA in LSK population 5 days after 5-FU treatment. Data (mean+s.d.) were pooled from two experiments, involving a total of 6 mice per group. FIG. 2H is a graph showing that targeted mutation of the Bak1 gene increased survival of LSK in BM at day 5 after 150 mg/kg 5-FU treatments. Data shown are percent of LSK in BM (n=3 for Bak1^+/+ mice and n=4 for Bak1^−/− mice). […] of Bak1^+/+ and Bak1^−/− LSK in BM. Data shown percent of untreated, after normalization using means of LSK % from BM of two untreated Bak1^+/+ and Bak1^−/− mice as 100%. FIG. 2J is a graph showing the numbers of WBC 10 days after 150 mg/kg 5-FU treatments between Bak1^−/− mice and wild type mice. Data (mean+s.d.) were pooled from two experiments, involving a total of 7 mice per group. *P<0.05, **P<0.01.
For xenograft models, the NSG mice and BALB/c mice were subcutaneously injected with 2×10^6 viable MDA-MB-231 cells and TUBO cells in their right hind limbs, respectively. After the tumor grew to 1 cm in diameter, mice were randomly divided into the groups for each treatment. For no treatment control, 100 μl saline with 1% mouse serum was intravenously injected through tail vein. […] Tumor sizes were measured in two dimensions every 3 days. Tumor volume (V) was calculated using the following formula: V=(½) S^2×L (S. the shortest dimension; L, the longest dimension). Animals were euthanized when the tumor size was over 2 cm diameters, tumor ulcerated, or became necrotic. For chimera treatment in normal mice, C57BL/6 mice were treated with miR-26a chimera (670 pmol/20 g) everyday for 3 days by intravenous injection. At day 2, 150 mg/kg 5-FU and/or 120 mg/kg carboplatin was injected together with the chimera. Peripheral bloods were collected at day 5 and day 10 after the 5-FU treatment. Complete blood counts were measured by Hemavet 950FS (Drew Scientific, Miami Lakes, Fla., USA).
For aptamer binding assay, streptavidin-APC (Cat #554067) […] Bioscience, San Jose, Calif., USA) was used for detecting the biotin-conjugated aptamers by flow cytometry. Other cell targeting aptamer specific for Ramos cells (28) was used for negative control. […]

reduction in the LSK population (C57BL/6, mouse, in vivo, 5 days) [fold] | Bak1 expression in LSK cells (mouse, in vivo) | Molecule | percent of apoptotic (Annexin V+) LSK (mouse, in vivo) | 5-FU-induced myelosuppression (leukocyte counts, bone marrow cellularity) (670 pmol/20 g chimera i.v. daily for 3 days, 150 mg/kg 5-FU on day 2) | 5-FU-induced myelosuppression (WBC, RBC, PLT), chimera mixed with 5-FU (150 mg/kg 5-FU with 2 nmol/20 g chimera i.v. at same time, 5 and 10 days) | prevention of 5-FU-induced reduction in the LSK population (5 days after 5-FU, chimera 670 pmol/20 g daily for 3 days) | protection of LSK from 5-FU-induced apoptosis (5 days after 5-FU, chimera treatment) | 5-FU-induced Bak elevation in LSK cells (mouse, in vivo)
~10 | massively induced | O=c1[nH]cc(F)c(=O)[nH]1 [5-FU, 5-fluorouracil, reference compound] | massively increased |  |  |  |  | 
 |  | miR-26a chimera: mouse c-Kit DNA aptamer-C3-passenger RNA, passenger RNA-TEG-cholesterol and miR-26a-5p guide strand annealed (SEQ ID NO:6/7, 8, 9) (nucleic acid, chemistry not fully specified) chain 1: GCTCAACGCGGGACGGCTCTCCCATTGAC chain 2: CCUAUUCUGG chain 3: GUUACUUGCACG guide: UUCAAGUAAUCCAGGAUAGGCU |  | significantly ameliorated myelosuppression | protects mice against 5-FU-induced myelosuppression | largely prevented | specifically protected | significantly diminished
